Publication PMC3374832, “The Structure of the Oligomerization Domain of Lsr2 from Mycobacterium tuberculosis Reveals a Mechanism for Chromosome Organization and Protection” (PLoS ONE, 2012)

Molecular target: the molecule itself
Test: SEC; S75 16/60GL or 10/300GL column, 20 mM tris-HCl pH 7.5, 150 mM NaCl; fresh sample, 14-week-old sample and sample treated with trypsin (1:500, 5 min, room temperature)

B1: Lsr2 N-terminal dimerization domain, construct Nterm2 (residues 1-61), freshly purified (domain or fragment)
chain: MAKKVTVTLVDDFDGSGAADETVEFGLDGVTYEIDLSTKNATKLRGDLKQWVAAGRRVGGR
notes: Lsr2 (Rv3597c) of Mycobacterium tuberculosis H37Rv, residues 1-61; also called N-Lsr2; Lsr2 N-terminal domain; not shown: His6, N-terminal, kept
- stoichiometry N: 2
